Biological target: T1, HypF (E. coli, UniProt P30131 1-750)
T1 construct: HypF, carbamoyltransferase of [NiFe]-hydrogenase maturation of E. coli; 82 kDa; also called His-tagged HypF; auxiliary protein HypF; source: isolated from E. coli, purified as described previously [21] with 10 mM magnesium acetate in all buffers
T1 sequence (looked up): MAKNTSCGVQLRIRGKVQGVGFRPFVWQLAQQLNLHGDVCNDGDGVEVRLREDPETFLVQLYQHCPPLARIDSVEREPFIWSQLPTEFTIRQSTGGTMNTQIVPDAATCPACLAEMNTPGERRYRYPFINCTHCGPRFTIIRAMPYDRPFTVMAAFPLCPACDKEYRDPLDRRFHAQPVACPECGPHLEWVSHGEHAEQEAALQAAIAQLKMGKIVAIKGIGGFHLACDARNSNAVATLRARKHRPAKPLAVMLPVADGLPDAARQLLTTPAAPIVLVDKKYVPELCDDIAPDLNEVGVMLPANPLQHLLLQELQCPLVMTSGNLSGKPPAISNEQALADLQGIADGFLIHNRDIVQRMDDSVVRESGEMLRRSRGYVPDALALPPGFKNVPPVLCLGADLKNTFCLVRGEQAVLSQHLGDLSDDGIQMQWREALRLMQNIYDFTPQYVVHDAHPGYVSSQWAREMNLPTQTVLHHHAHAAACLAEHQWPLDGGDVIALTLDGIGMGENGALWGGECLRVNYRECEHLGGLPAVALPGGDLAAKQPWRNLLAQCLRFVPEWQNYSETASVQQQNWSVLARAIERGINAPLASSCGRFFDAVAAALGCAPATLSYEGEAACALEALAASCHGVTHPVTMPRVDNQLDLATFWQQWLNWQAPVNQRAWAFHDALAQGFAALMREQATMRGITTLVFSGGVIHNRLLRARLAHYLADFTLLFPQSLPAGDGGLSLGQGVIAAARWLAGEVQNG
Test: native gel or EMSA; native PAGE as described earlier [35,36]; isolated HypE and HypF; no further conditions told for this experiment
Conditions: both partners purified

binding result: binds
B1: HypE (natural protein, E. coli, UniProt P24193 1-336, looked up)
chain: MNNIQLAHGSGGQAMQQLINSLFMEAFANPWLAEQEDQARLDLAQLVAEGDRLAFSTDSYVIDPLFFPGGNIGKLAICGTANDVAVSGAIPRYLSCGFILEEGLPMETLKAVVTSMAETARAAGIAIVTGDTKVVQRGAVDKLFINTAGMGAIPANIHWGAQTLTAGDVLLVSGTLGDHGATILNLREQLGLDGELVSDCAVLTPLIQTLRDIPGVKALRDATRGGVNAVVHEFAAACGCGIELSEAALPVKPAVRGVCELLGLDALNFANEGKLVIAVERNAAEQVLAALHSHPLGKDAALIGEVVERKGVRLAGLYGVKRTLDLPHAEPLPRIC
notes: HypE, [NiFe]-hydrogenase maturation protein of E. coli; 36 kDa monomer; C-terminal cysteine C336 in E. coli nomenclature; also called His-tagged HypE; auxiliary protein HypE; source: isolated from E. coli, purified as described previously [21] with 10 mM magnesium acetate in all buffers
